Data: US20140134155A1 (TECHNISCHE UNIVERSIT T DRESDEN, published 2014)

B1: murine bispecific scBsTaFv CD3-PSCA(MB1) (bispecific antibody, part only; not given: anti-CD3 scFv and tags, not shown: small tags and cut ends)
chain, part: VQLQESGGVLVQPGGSLKLSCAASGFTFSSYSMSWIRQTPDRRLEWVAYINDSGGSTFYPDTVKGRFSISRDNAKNTLYLQISRLRSGDTAIYYCSRRMYYGNSHWHFDVWGAGTTVTVSSGGGGSGGGGSGGGGSDIVMTQSTSSLSASLGDRVTINCGTSQDINNYLNWYQQKPDGSVKLLIYYTSRLHSGVPSRFSGSGSGTDYSLTISNLEQGDIATYFCQQSKTLPWTFGGGTKLELKRADAAPTVS
B2: murine bispecific scBsTaFv CD3-PSCA(7F5) (bispecific antibody, part only; not given: anti-CD3 scFv, linkers, tags, part only)
chain, part: QVKLQESGGGLVQPGGSLKLSCVASGFTFSSYTMSWVRRTPEKRLEWVAYIHNGGGHTYYPDTIKGRFTISRDNAKNTLFLEMSSLKSEDTAMYYCTRRMYYGNSHWYFDVWGAGTSVTVSDIQMTQSPSSLSASVGDRVTITCRTSQDISNYLNWYQQKPGKAPKLLIYYTLKLNSGVPSRFSGSGSGTDFTFTISSLQPEDIATYYCQQSKTLPWTFGGGTKVEIK
B3: humanized bispecific scBsTaFv CD3-PSCA(MB1) (bispecific antibody)
chain: QVQLVQSGAEVKKPGASVKVSCKASGYTFTKYVIHWVRQAPGQGLEWMGYINPYNDVSKYNEKFRGRVTMTTDTSTSTAYMELRSLRSDDTAVYYCARNKDYYPMDYWGQGTTVTVSGGGGSGGGGSGGGGSEIVLTQSPATLSLSPGERATLSCSASSSVSYMHWYQQKPGQAPRLLIYDTSKLASGIPARFSGSGSGTDFTLTISSLEPEDFAVYYCQQWSSNPLTFGGGTKVEIKDIQMTQSPSSLSASVGDRVTITCGTSQDINNYLNWYQQKPGKVPKLLIYYTSRLHSGVPSRFSGSGSGTDFTLTISSLQPEDVATYYCQQSKTLPWTFGGGTQLTVLGGGGSGGGGSGASAAGGGGSGGGGSQVQLVESGGGLVKPGGSLRLSCAASGFTFSSYSMSWIRQAPGKGLEWVSYINDSGGSTFYPDTVKGRFTISRDNAKNSLYLQMNSLRAEDTAVYYCARRMYYGNSHWHFDVWGQGTTVTVSS

Assays:
[1] = target: T1, prostate-specific stem cell antigen (PSCA) (human) (UniProt O43653); experiment: cell-based or functional assay
T1 sequence (looked up): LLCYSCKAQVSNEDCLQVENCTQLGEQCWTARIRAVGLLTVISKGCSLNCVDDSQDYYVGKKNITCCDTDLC

[2] = target: T2, prostate-specific stem cell antigen (PSCA) (human, UniProt O43653 12-83); experiment: cell-based or functional assay
T2 sequence (looked up): T1 sequence (looked up)

| Binder | antibody amount giving strong lysis of PSCA-positive cells (chrome release test) [1] | specific lysis of 51Cr-loaded PC3-PSCA tumor cells (chrome release test) [1] | specific lysis of 51Cr-loaded PC3-PSCA tumor cells (chrome release test, effector target ratio 10:1, 20 h) [2] |
| --- | --- | --- | --- |
| B1 | < 1 ng | 80% | – |
| B2 | – | 60% | – |
| B3 | – | – | > 90% |
